Residue numbers refer to the chain shown, from its start. Numbers in names are those of the source. Read-outs that look alike come from different tables or passages of the source. Each block holds one binder with its values, some of them ahead of it.
Experiments:
[1] = target: T1, Human PD-1 protein (His Tag) (human, UniProt Q15116 25-167); experiment: ELISA, plate coated with human PD-1 (his tag), anti-human IgG4 Fc-HRP
T1 construct: also called PD1-H5221; PD-1 antigen; not shown: His tag

human PD-1 [2] = target: T2, human PD-1 (human, UniProt Q15116 25-288); experiment: flow cytometry on Jurkat cells overexpressing human PD-1
T2 construct: One molecule for human PD-1 on Jurkat cells (Promega), on M07e-hPD-1 cells and on T cells of the MLR; also called PD-1 expressed on the cell membrane; Jurkat cells overexpressing human PD-1 (J1250, Promega)
T2 sequence (Q15116 25-288 limits assumed): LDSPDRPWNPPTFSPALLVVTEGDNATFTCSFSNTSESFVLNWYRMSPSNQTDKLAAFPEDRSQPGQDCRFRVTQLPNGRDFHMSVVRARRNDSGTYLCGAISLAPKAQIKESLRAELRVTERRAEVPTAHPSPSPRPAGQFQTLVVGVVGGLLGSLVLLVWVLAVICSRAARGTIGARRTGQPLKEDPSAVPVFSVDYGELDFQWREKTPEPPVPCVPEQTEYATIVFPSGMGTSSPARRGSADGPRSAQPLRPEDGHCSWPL

human PD-1 [3] = target: T2, human PD-1; experiment: cell-based or functional assay
human PD-1 [4] = target: T2, human PD-1; experiment: cell-based or functional assay; remark: listed apart in the source
IL-2Rβ/γ on M07e cells = target: T3, IL-2Rβ/γ on M07e cells (human, UniProt P14784 27-551; P31785 23-369); experiment: cell-based or functional assay
T3 sequence (looked up) 1: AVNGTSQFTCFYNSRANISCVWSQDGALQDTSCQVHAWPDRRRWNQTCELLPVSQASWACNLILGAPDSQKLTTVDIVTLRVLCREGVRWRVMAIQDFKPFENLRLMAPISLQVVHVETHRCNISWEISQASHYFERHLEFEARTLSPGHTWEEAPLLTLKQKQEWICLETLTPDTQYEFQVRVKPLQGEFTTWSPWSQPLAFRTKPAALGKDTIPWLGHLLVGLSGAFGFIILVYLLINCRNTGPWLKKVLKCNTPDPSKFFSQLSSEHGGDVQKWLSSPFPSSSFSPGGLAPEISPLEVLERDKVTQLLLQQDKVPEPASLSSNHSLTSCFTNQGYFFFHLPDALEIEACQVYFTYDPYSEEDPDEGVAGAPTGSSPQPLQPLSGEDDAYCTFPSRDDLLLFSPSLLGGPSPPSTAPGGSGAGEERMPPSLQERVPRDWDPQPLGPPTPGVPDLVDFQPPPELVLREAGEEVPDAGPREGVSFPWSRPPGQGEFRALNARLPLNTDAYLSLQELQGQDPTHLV
T3 sequence (looked up) 2: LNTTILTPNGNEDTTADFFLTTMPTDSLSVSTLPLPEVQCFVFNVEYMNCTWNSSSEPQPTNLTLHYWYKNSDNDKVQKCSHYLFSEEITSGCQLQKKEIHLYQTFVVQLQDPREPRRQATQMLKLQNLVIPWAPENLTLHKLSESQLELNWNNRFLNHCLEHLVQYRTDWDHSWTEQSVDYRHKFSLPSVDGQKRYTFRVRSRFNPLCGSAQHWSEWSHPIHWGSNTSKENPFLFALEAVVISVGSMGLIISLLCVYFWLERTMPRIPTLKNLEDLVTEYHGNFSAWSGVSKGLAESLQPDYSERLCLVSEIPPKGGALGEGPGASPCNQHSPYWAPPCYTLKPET

human PD-1 [5] = target: T2, human PD-1; experiment: cell-based or functional assay; remark: listed apart in the source
[6] = target: T4, human IL-2Rα receptor protein (Sino Biological, 10165-H08H) (human, UniProt P01589 22-213); experiment: SPR Biacore 8K, fusion protein captured by anti-human IgG (Fc), IL-2Rα as analyte
T4 construct: also called CD25
T4 sequence (looked up): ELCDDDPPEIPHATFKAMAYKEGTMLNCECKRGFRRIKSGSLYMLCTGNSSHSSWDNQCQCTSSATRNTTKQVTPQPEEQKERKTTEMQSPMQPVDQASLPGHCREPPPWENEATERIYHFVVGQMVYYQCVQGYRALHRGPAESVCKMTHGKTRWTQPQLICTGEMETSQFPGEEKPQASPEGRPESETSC

[7] = target: Human PD-1 antigen protein (Sino Biological, 10377-H08H) (human, UniProt Q15116 25-167); experiment: SPR Biacore 8K, fusion protein captured by anti-human IgG (Fc), human PD-1 as analyte
Chain of Human PD-1 antigen protein (Sino Biological, 10377-H08H) (Q15116 25-167 limits assumed): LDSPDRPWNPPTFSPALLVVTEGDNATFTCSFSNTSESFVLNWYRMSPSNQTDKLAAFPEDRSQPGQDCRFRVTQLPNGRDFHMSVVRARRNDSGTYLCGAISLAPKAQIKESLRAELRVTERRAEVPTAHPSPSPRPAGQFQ

[8] = target: T5, human IL-2Rβ/γ receptor heterodimer protein (Acrosystem, ILG-H5283) (human, UniProt P14784 27-239; P31785 23-262, limits assumed); experiment: SPR Biacore 8K, fusion protein captured by anti-human IgG (Fc), human IL-2Rβ/γ heterodimer as analyte
T5 sequence (looked up) 1: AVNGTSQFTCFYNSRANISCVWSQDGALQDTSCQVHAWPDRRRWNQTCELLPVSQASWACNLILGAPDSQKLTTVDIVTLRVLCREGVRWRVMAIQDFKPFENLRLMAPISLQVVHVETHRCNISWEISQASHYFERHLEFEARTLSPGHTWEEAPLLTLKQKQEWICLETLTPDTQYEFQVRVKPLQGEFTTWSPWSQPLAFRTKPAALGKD
T5 sequence (looked up) 2: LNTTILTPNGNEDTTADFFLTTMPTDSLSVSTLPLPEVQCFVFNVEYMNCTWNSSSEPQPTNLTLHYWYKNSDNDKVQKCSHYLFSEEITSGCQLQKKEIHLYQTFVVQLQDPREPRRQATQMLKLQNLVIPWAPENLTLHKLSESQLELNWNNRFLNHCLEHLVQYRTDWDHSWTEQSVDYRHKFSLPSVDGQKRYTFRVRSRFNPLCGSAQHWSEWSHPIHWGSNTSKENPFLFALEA

human PD-1 [9] = target: T2, human PD-1; experiment: cell-based or functional assay; remark: listed apart in the source
[10] = target: T5, human IL-2Rβ/γ receptor heterodimer …; experiment: SPR Biacore 8K; affinity for human IL-2Rβ/γ against A-PC

T1 sequence (Q15116 25-167): as the sequence (Q15116 25-167 limits assumed) above

EC50 [1]: 0.061 nM
EC50 (human PD-1 [2]): 0.357 nM
IC50, PD-1/PD-L1 NFAT reporter gene system (human PD-1 [3]): 1.2 nM
B1: A17_hIgG4 (antibody, V domains shown)
VH: EVQVVESGGGLVQPGGSLRLSCVASGLTFSDYSMSWYRQAPGKERELVAIISGSGVIAHYVDSVKGRFTISRDNAKSTVYLQMVSLKPEDRGVYYCRAVSDWDDYWGQGTQVTVSS

M07e-hPD-1 cell proliferation activity (%) at 0.0001 nM (human PD-1 [4]): 2.3%
M07e-hPD-1 cell proliferation activity (%) at 0.001 nM (human PD-1 [4]): 2.9%
M07e-hPD-1 cell proliferation activity (%) at 0.01 nM (human PD-1 [4]): 11.4%
M07e-hPD-1 cell proliferation activity (%) at 0.1 nM (human PD-1 [4]): 24.2%
M07e-hPD-1 cell proliferation activity (%) at 1 nM (human PD-1 [4]): 28.5%
M07e-hPD-1 cell proliferation activity (%) at 10 nM (human PD-1 [4]): 30.2%
M07e-hPD-1 cell proliferation activity (%) at 100 nM (human PD-1 [4]): 32%
M07e-hPD-1 cell proliferation activity (%) at 1000 nM (human PD-1 [4]): 39.2%
M07e cell proliferation activity (%) at 0.46 nM (IL-2Rβ/γ on M07e cells): -3%
M07e cell proliferation activity (%) at 1.4 nM (IL-2Rβ/γ on M07e cells): -2.6%
M07e cell proliferation activity (%) at 4.1 nM (IL-2Rβ/γ on M07e cells): -1.6%
M07e cell proliferation activity (%) at 12 nM (IL-2Rβ/γ on M07e cells): -3%
M07e cell proliferation activity (%) at 37 nM (IL-2Rβ/γ on M07e cells): -3.7%
M07e cell proliferation activity (%) at 111 nM (IL-2Rβ/γ on M07e cells): -2.4%
M07e cell proliferation activity (%) at 333 nM (IL-2Rβ/γ on M07e cells): -1.9%
M07e cell proliferation activity (%) at 1000 nM (IL-2Rβ/γ on M07e cells): 0.6%
M07e-hPD-1 cell proliferation ratio (%) at 0.0001 nM (human PD-1 [5]): 0.6%
M07e-hPD-1 cell proliferation ratio (%) at 0.001 nM (human PD-1 [5]): -0.3%
M07e-hPD-1 cell proliferation ratio (%) at 0.01 nM (human PD-1 [5]): 2.6%
M07e-hPD-1 cell proliferation ratio (%) at 0.1 nM (human PD-1 [5]): 8.4%
M07e-hPD-1 cell proliferation ratio (%) at 1 nM (human PD-1 [5]): 10.8%
M07e-hPD-1 cell proliferation ratio (%) at 10 nM (human PD-1 [5]): 10.8%
M07e-hPD-1 cell proliferation ratio (%) at 100 nM (human PD-1 [5]): 13.5%
M07e-hPD-1 cell proliferation ratio (%) at 1000 nM (human PD-1 [5]): 15.4%
binding result [6]: no binding
Kd [7]: 18.5 nM
koff [7]: 0.00168 s⁻¹
kon [7]: 90600 M⁻¹ s⁻¹
Kd [8]: 16 nM
koff [8]: 0.000681 s⁻¹
kon [8]: 42700 M⁻¹ s⁻¹
fold lower affinity than A-PC [10]: ~63 fold
B3: A-D20A (Fc fusion)
chain (part 1 of 2): EVQLVESGGGLVQPGGSLRLSCAASGLTFSDYSMSWYRQAPGKGRELVAIISGSGVITHYVDSVKGRFTISRDNAKNTLYLQMRSLRAEDTAVYYCRAVSDWEDYWGQGTQVTVSS
chain (part 2 of 2): GGGGSGGGGSGGGGSAPASSSTKKTQLQLEHLLLALQMILQGISNYKNPKLTRMLTAKFYMPKKATELKHLQCLEEELKPLEEVLQGAQSKNFHLRPRDLISNINVIVLELKGSETTFMCEYADETATIVEFLNRWITFAQSIISTLT
chain: B3 chain (part 1 of 2)
notes: also called PD-1-IL-2v (D20A); not shown: IgG1 hinge (C220S) + Fc Knob chain (L234A, L235A, S354C, T366W, EU); D356/L358 or E356/M358 ver; IgG1 hinge (C220S) + Fc Hole chain (L234A, L235A, Y349C, T366S, L368A, Y407V; may have H435R, Y436F; EU)

More lines, now with the values behind:

B2: A-PC (Fc fusion)
chain (part 1 of 2): B3 chain (part 1 of 2)
chain (part 2 of 2): B3 chain (part 2 of 2) with A35D
chain: B3 chain (part 1 of 2)
notes: also called positive control molecule A-PC; PD-1-IL-2v; not shown: IgG1 hinge (C220S) + Fc Knob chain (L234A, L235A, S354C, T366W, EU); D356/L358 or E356/M358 ver; IgG1 hinge (C220S) + Fc Hole chain (L234A, L235A, Y349C, T366S, L368A, Y407V; may have H435R, Y436F; EU)
M07e-hPD-1 cell proliferation activity (%) at 0.0001 nM (human PD-1 [4]): 1%
M07e-hPD-1 cell proliferation activity (%) at 0.001 nM (human PD-1 [4]): 3%
M07e-hPD-1 cell proliferation activity (%) at 0.01 nM (human PD-1 [4]): 28%
M07e-hPD-1 cell proliferation activity (%) at 0.1 nM (human PD-1 [4]): 87%
M07e-hPD-1 cell proliferation activity (%) at 1 nM (human PD-1 [4]): 99%
M07e-hPD-1 cell proliferation activity (%) at 10 nM (human PD-1 [4]): 98%
M07e-hPD-1 cell proliferation activity (%) at 100 nM (human PD-1 [4]): 102%
M07e-hPD-1 cell proliferation activity (%) at 1000 nM (human PD-1 [4]): 100%
M07e cell proliferation activity (%) at 0.46 nM (IL-2Rβ/γ on M07e cells): 0.1%
M07e cell proliferation activity (%) at 1.4 nM (IL-2Rβ/γ on M07e cells): 3.6%
M07e cell proliferation activity (%) at 4.1 nM (IL-2Rβ/γ on M07e cells): 28.1%
M07e cell proliferation activity (%) at 12 nM (IL-2Rβ/γ on M07e cells): 41.6%
M07e cell proliferation activity (%) at 37 nM (IL-2Rβ/γ on M07e cells): 71.7%
M07e cell proliferation activity (%) at 111 nM (IL-2Rβ/γ on M07e cells): 87.2%
M07e cell proliferation activity (%) at 333 nM (IL-2Rβ/γ on M07e cells): 89.8%
M07e cell proliferation activity (%) at 1000 nM (IL-2Rβ/γ on M07e cells): 100%
M07e-hPD-1 cell proliferation ratio (%) at 0.0001 nM (human PD-1 [5]): 2.4%
M07e-hPD-1 cell proliferation ratio (%) at 0.001 nM (human PD-1 [5]): 4.9%
M07e-hPD-1 cell proliferation ratio (%) at 0.01 nM (human PD-1 [5]): 33.7%
M07e-hPD-1 cell proliferation ratio (%) at 0.1 nM (human PD-1 [5]): 79%
M07e-hPD-1 cell proliferation ratio (%) at 1 nM (human PD-1 [5]): 95.9%
M07e-hPD-1 cell proliferation ratio (%) at 10 nM (human PD-1 [5]): 113%
M07e-hPD-1 cell proliferation ratio (%) at 100 nM (human PD-1 [5]): 112%
M07e-hPD-1 cell proliferation ratio (%) at 1000 nM (human PD-1 [5]): 100%
binding result [6]: no binding
Kd [7]: 19.4 nM
koff [7]: 0.00182 s⁻¹
kon [7]: 93700 M⁻¹ s⁻¹
Kd [8]: 0.253 nM
koff [8]: 2.23e-05 s⁻¹
kon [8]: 88100 M⁻¹ s⁻¹
M07e-hPD-1 cell proliferation ratio (%) at 0.0001 nM (human PD-1 [9]): 4%
M07e-hPD-1 cell proliferation ratio (%) at 0.001 nM (human PD-1 [9]): 8.1%
M07e-hPD-1 cell proliferation ratio (%) at 0.01 nM (human PD-1 [9]): 29.3%
M07e-hPD-1 cell proliferation ratio (%) at 0.1 nM (human PD-1 [9]): 99.5%
M07e-hPD-1 cell proliferation ratio (%) at 1 nM (human PD-1 [9]): 112%
M07e-hPD-1 cell proliferation ratio (%) at 10 nM (human PD-1 [9]): 107%
M07e-hPD-1 cell proliferation ratio (%) at 100 nM (human PD-1 [9]): 105%
M07e-hPD-1 cell proliferation ratio (%) at 1000 nM (human PD-1 [9]): 100%

B4: A6_hIgG4 (antibody, V domains shown)
VH: EVQLVESGGGLVQAGGSLRLSCAVSGRTFSSAAMGWFRQAPGKEREFVAAISWSFGSTYYADSVKGRFTISRDNAKNTVYLQMNSLKPEDTAVYYCAADPSIETMGGGWDYWGQGTQVTVSS
EC50 [1]: 0.0861 nM
EC50 (human PD-1 [2]): 1.09 nM
IC50, PD-1/PD-L1 NFAT reporter gene system (human PD-1 [3]): 1.35 nM

From patent publication EP4477673A1, “IMMUNOCONJUGATE AND USE THEREOF” (priority 2022, dated 2023)
